Source: patent publication US7854918B2, “Composition for medical use having improved water-solubility of peptide and metal-labeling efficiency and preparation for medical use comprising metal-labeled peptide” (Nihon Medi-Physics Co., Ltd., priority 2004, dated 2010)
Entries after “also recorded” stand apart in the source; their conditions may differ. Square brackets hold non-standard residues; d marks the D form. Ends that are not written are not given here. * marks the point of attachment. Nle = CCCC[C@H](N)C(=O)O; For = O=C*

What was measured:
Format in all cases: physicochemical
[1] = Elution rate: reverse-phase HPLC peak area of the peptide after vs before 0.22 μm filtration
Method: (§1) Peptide 1, Peptide 2, and Peptide 3 (100 μg each) were separately added to 410 mM arginine solutions (pH 11) to adjust each total amount to 700 μL. Molarities in these solutions are 94 μM (Peptide 1), 99 μM (Peptide 2), and 161 μM (Peptide 3). […] Then, 200 μL each of the sample solutions was filtered with a filter Millex (registered trademark)-GV (trade name, manufactured by Nihon Millipore) with a pore size of 0.22 μm. The sample solutions before filtration and the sample solutions after filtration were respectively analyzed by reverse-phase HPLC. Peak area percentages were determined from the peak area values of the peptides before and after filtration and used as elution rates. HPLC analytical conditions are shown below.
(§2) For a comparative example, Peptide 1, Peptide 2, and Peptide 3 were separately dissolved in each of water and dimethylsulfoxide (DMSO) to prepare samples having a peptide concentration of 94 μM, 99 μM, or 161 μM, which were studied in the same way as above.
Column: Cosmosil 5C18-AR-300 (Manufactured by Nacalai Tesque, 4.6×150 mm)
(§3) Detection: ultraviolet and visible spectrophotometer (detection wavelength: 220 nm)
HPLC system: Alliance (manufactured by Waters, Japan)
Eluant A: 0.1% trifluoroacetic acid (hereinafter, TFA)/purified water
(§4) Eluant B: 0.1% TFA/acetonitrile
(§5) Concentration gradient: 0 min (Eluant B 20%)→25 min (Eluant B 70%)
(§6) Arginine, lysine, and histidine were separately dissolved in water to prepare 410 mM arginine solution, 489 mM lysine solution, and 90 mM histidine solution. An aqueous solution of sodium hydroxide and hydrochloric acid were added to these solutions to adjust the pH of the aqueous solutions of lysine and histidine to 8, 9, 10, and 11, and the pH of the aqueous solution of arginine to 8, 8.5, 9, 9.5, 10, and 11. Subsequently, Peptide 1 was added to these aqueous solutions to prepare 94 μM Peptide 1 solutions. […] Then, 200 μL each of the sample solutions was filtered with a filter Millex (registered trademark)-GV (trade name, manufactured by Nihon Millipore) with a pore size of 0.22 μm. The sample solutions before filtration and the sample solutions after filtration were respectively analyzed by reverse-phase HPLC. Peak area percentages were determined from the peak area values of Peptide 1 before and after filtration and used as elution rates. HPLC analytical conditions were the same as the conditions described in Example 1.
(§7) Imidazole was dissolved in water to prepare 1 mM imidazole solution. pH was adjusted to 8, 8.5, and 9 by adding an appropriate amount of hydrochloric acid to this solution. Subsequently, Peptide 1 was added to these imidazole solutions to prepare 94 μM Peptide 1 solutions. […] Then, 200 μL each of the sample solutions was filtered with a filter Millex (registered trademark)-GV (trade name, manufactured by Nihon Millipore) with a pore size of 0.22 μm. The sample solutions before filtration and the sample solutions after filtration were respectively analyzed by reverse-phase HPLC. Peak area percentages were determined from the peak area values of Peptide 1 before and after filtration and used as elution rates. HPLC analytical conditions were the same as the conditions described in Example 1.
(§8) Disodium hydrogen phosphate, sodium dihydrogen citrate, sodium ascorbate, and imidazole were separately dissolved in water to prepare their respective aqueous solutions with pH 9 at concentrations described in Table 4. pH adjustment was performed with hydrochloric acid and an aqueous solution of sodium hydroxide. The above-described aqueous solutions were separately added to the weighed Peptide 1 to prepare 94 μM Peptide 1 solutions. […] These Peptide 1 solutions were compared with the Peptide 1 sample solutions using the respective aqueous solutions of disodium hydrogen phosphate, sodium dihydrogen citrate, and sodium ascorbate used as comparative controls. […]

[2] = External observation of peptide sample solutions (presence or absence of white turbidity)
Method: as §1, §2, §6, §7
as §8, with “controls. Subsequently, 200 μL each of the sample solutions was filtered with a filter Millex (registered trademark)-GV (trade name, manufactured by Nihon Millipore) with a pore size of 0.22 μm. The sample solutions before filtration and the sample solutions after filtration were respectively analyzed by reverse-phase HPLC.” for “controls.”

[3] = Tc-99m labeling at room temperature, radiochemical purity by HPLC
Method: (§9) Peptide 1 was dissolved in the aqueous solution of arginine with pH 10 obtained in Example 2 to prepare 9.4 μM peptide/arginine solution. 25 μL of a solution of 10 mL of 0.01 M hydrochloric acid supplemented with 5 mg of stannous chloride solution was added to 700 μL of the peptide/arginine solution, and 0.6 to 1.0 GBq of Tc-99m-sodium pertechnetate (hereinafter, 99 mTcO4^−) solution was quickly added thereto to adjust the total amount to 1 mL. After the labeling procedure, the peptide concentration was diluted to 6.6 μM. After shaking for several seconds, the solution was reacted at room temperature. A portion thereof was taken on 10 minutes and 90 minutes after the labeling procedure to determine each Tc-99m labeling rate by HPLC and TLC. The HPLC and TLC analyses were performed under conditions described below.
(§10) For comparative controls, Peptide 1 was dissolved in dimethylsulfoxide (DMSO) and then diluted 10-fold with 100 mM phosphate buffer solution (hereinafter, PB) with pH 10 to prepare a peptide/DMSO/PB solution with the final peptide concentration of 9.4 μM. Alternatively, Peptide 1 was dissolved in PB to prepare a peptide/PB solution with the final peptide concentration of 9.4 μM. These solutions were labeled in the same way as in the peptide/arginine solution to determine each Tc-99m labeling rate by HPLC and TLC. After the labeling procedure, the peptide concentration was diluted to 6.6 μM.
Column: Cosmosil 5C18-AR-300 (manufactured by Nacalai Tesque, 4.6×150 mm)
as §3
Radioactivity detector: STEFFI NaI scintillator (manufactured by Raytest)
Eluant A: 0.1% TFA/purified water
as §4, §5

[4] = Tc-99m labeling at room temperature, radiochemical purity by TLC
Method: as §9, §10
Plate: Silica Gel 60F254 (manufactured by Merck)
Developing solvent: 28% ammonia water/acetonitrile=½
Radioactivity detector: Gita NaI scintillator (manufactured by Raytest)
12.5, 25, and 50 mg of arginine was weighed, then dissolved in water, and adjusted with hydrochloric acid to pH 10 to adjust each total amount to 700 μL. Molarities in these solutions are 102.5 mM, 205 mM, and 410 mM, respectively. Peptide 1 was dissolved in these aqueous solutions of arginine to prepare respective 9.4 μM peptide/arginine solutions. 25 μL of a solution of 10 mL of 0.01 M hydrochloric acid supplemented with 5 mg of stannous chloride solution was added to each of the peptide/arginine solutions, and 0.6 to 1.0 GBq of 99 mTcO4^− solution was quickly added thereto to adjust each total amount to 1 mL. After shaking for several seconds, the solutions were reacted at room temperature. A portion thereof was taken on 30 minutes, 90 minutes, 180 minutes, 360 minutes, 24 hours, and 30 hours after the labeling procedure to determine each radiochemical purity by TLC analysis under the conditions described in Example 5.

[5] = 410 mM arginine solution, pH 11, peptide 94/99/161 μM
[6] = solvent DMSO, peptide 94/99/161 μM
[7] = solvent water, peptide 94 μM (Peptide 1), 99 μM (Peptide 2), 161 μM (Peptide 3)
[8] = Tc-99m labeling in DMSO/phosphate buffer solution pH 10, room temperature, 10 minutes
[9] = Tc-99m labeling in DMSO/phosphate buffer solution pH 10, room temperature, 90 minutes
[10] = Tc-99m labeling in phosphate buffer solution pH 10, room temperature, 10 minutes
[11] = 1 mM imidazole, pH 8, 94 μM peptide
[12] = 90 mM histidine, pH 9, 94 μM peptide
[13] = 100 mM disodium hydrogen phosphate, pH 9, 94 μM peptide
[14] = 410 mM arginine, pH 9, 94 μM peptide
[15] = 489 mM lysine, pH 9, 94 μM peptide
[16] = aqueous solutions of arginine, lysine and histidine at pH 9 or more

Substance: formyl-Met-Leu-Phe-Lys-ε(-Gly-Asp-Ac—S-Bzl) (For-MLFKGD; not fully specified (C-terminus); printed as formyl-Met-Leu-Phe-Lys-ε(-Gly-Asp-Ac—S-Bzl); also: Gly-Asp attached through Lys epsilon-amino (branch)) [Peptide 3]
- Elution rate [1, 5]: 101.3%
- Elution rate [1, 6]: 108.5%
- Appearance [2, 5]: Colorless,
- Appearance [2, 6]: Colorless,
- Appearance [2, 7]: Whitish

Substance: formyl-Nle-Leu-Phe-Nle-Tyr-Lys(NH2)-ε(-Ser-D-Arg-Asp-Cys-Asp-Asp) (For-[Nle]LF[Nle]YKS[dR]DCDD; also: Lys(NH2): Lys α-carboxamide, Ser-D-Arg-Asp-Cys-Asp-Asp branch on Lys ε-amine) [Peptide 1]
- Radiochemical purity (HPLC) [3, 8]: 72.0%
- Radiochemical purity (HPLC) [3, 9]: 75.4%
- Radiochemical purity (HPLC) [3, 10]: 55.3%
- Radiochemical purity (TLC) ([4]; 102.5 mM arginine pH 10, 30 minutes after labeling): 93.3%
- Radiochemical purity (TLC) ([4]; 102.5 mM arginine pH 10, 90 minutes after labeling): 92.6%
- Radiochemical purity (TLC) ([4]; 102.5 mM arginine pH 10, 180 minutes after labeling): 92.6%
- Radiochemical purity (TLC) ([4]; 102.5 mM arginine pH 10, 360 minutes after labeling): 91.2%
- Radiochemical purity (TLC) ([4]; 102.5 mM arginine pH 10, 24 hours after labeling): 88.9%
- Radiochemical purity (TLC) ([4]; 102.5 mM arginine pH 10, 30 hours after labeling): 89.8%
- Radiochemical purity (TLC) ([4]; 205 mM arginine pH 10, 30 minutes after labeling): 92.0%
- Radiochemical purity (TLC) ([4]; 205 mM arginine pH 10, 90 minutes after labeling): 90.8%
- Radiochemical purity (TLC) ([4]; 205 mM arginine pH 10, 180 minutes after labeling): 89.7%
- Radiochemical purity (TLC) ([4]; 205 mM arginine pH 10, 360 minutes after labeling): 89.7%
- Radiochemical purity (TLC) ([4]; 205 mM arginine pH 10, 24 hours after labeling): 88.3%
- Radiochemical purity (TLC) ([4]; 205 mM arginine pH 10, 30 hours after labeling): 87.3%
- Radiochemical purity (TLC) ([4]; 410 mM arginine pH 10 (Example 6), 30 minutes after labeling): 91.6%
- Radiochemical purity (TLC) ([4]; 410 mM arginine pH 10 (Example 6), 90 minutes after labeling): 89.5%
- Radiochemical purity (TLC) ([4]; 410 mM arginine pH 10 (Example 6), 180 minutes after labeling): 87.1%
- Radiochemical purity (TLC) ([4]; 410 mM arginine pH 10 (Example 6), 360 minutes after labeling): 85.7%
- Radiochemical purity (TLC) ([4]; 410 mM arginine pH 10 (Example 6), 24 hours after labeling): 86.5%
- Radiochemical purity (TLC) ([4]; 410 mM arginine pH 10 (Example 6), 30 hours after labeling): 84.9%
- Radiochemical purity (TLC) [4, 8]: 45.7%
- Radiochemical purity (TLC) [4, 9]: 41.9%
- Radiochemical purity (TLC) [4, 10]: 28.0%
- Radiochemical purity (TLC) ([4]; Tc-99m labeling in phosphate buffer solution pH 10, room temperature, 90 minutes): 33.6%
- Elution rate [1, 11]: 64.9%
- Elution rate [1, 12]: 85.9%
- Elution rate ([1]; 90 mM histidine, pH 10, 94 μM peptide): 90.7%
- Elution rate ([1]; 90 mM histidine, pH 11, 94 μM peptide): 96.7%
- Elution rate [1, 13]: 53.8%
- Elution rate [1, 5]: 100.8%
- Elution rate ([1]; 410 mM arginine, pH 8.5, 94 μM peptide): 43.8%
- Elution rate [1, 14]: 93.8%
- Elution rate ([1]; 410 mM arginine, pH 9.5, 94 μM peptide): 95.4%
- Elution rate ([1]; 410 mM arginine, pH 10, 94 μM peptide): 98.8%
- Elution rate [1, 15]: 89.0%
- Elution rate ([1]; 489 mM lysine, pH 10, 94 μM peptide): 83.6%
- Elution rate ([1]; 489 mM lysine, pH 11, 94 μM peptide): 85.9%
- Elution rate [1, 16]: ≥ 85%
- Elution rate [1, 6]: 98.6%
- Appearance [2, 11]: colorless and transparent
- Appearance ([2]; 1 mM imidazole, pH 8.5, 94 μM peptide): colorless and transparent
- Appearance ([2]; 1 mM imidazole, pH 9, 94 μM peptide): colorless and transparent
- Appearance [2, 12]: colorless, transparent
- Appearance [2, 13]: colorless, transparent
- Appearance ([2]; 243 mM sodium dihydrogen citrate, pH 9, 94 μM peptide): white turbidity; also recorded: Whitish
- Appearance ([2]; 401 mM sodium ascorbate, pH 9, 94 μM peptide): white turbidity; also recorded: Whitish
- Appearance [2, 5]: Colorless,
- Appearance ([2]; 410 mM arginine, pH 8, 94 μM peptide): Evident white turbidity
- Appearance [2, 14]: colorless, transparent
- Appearance [2, 15]: colorless, transparent
- Appearance ([2]; aqueous solutions of arginine, lysine and histidine at pH 8.5 or less): Weak white turbidity
- Appearance [2, 16]: colorless, transparent
- Appearance [2, 6]: Colorless,
- Appearance [2, 7]: Whitish

Substance: formyl-Nle-Leu-Phe-Nle-Tyr-Lys(NH2)-ε(-Ser-D-Arg-DTPA*) (For-[Nle]LF[Nle]YKS[dR]; not fully specified (C-terminus); also: Lys(NH2): Lys α-carboxamide, Ser-D-Arg branch on Lys ε-amine, DTPA* at end of Ser-D-Arg branch) [Peptide 2]
- Elution rate [1, 5]: 102.8%
- Elution rate [1, 6]: 100.9%
- Appearance [2, 5]: Colorless,
- Appearance [2, 6]: Colorless,
- Appearance [2, 7]: Whitish
